Experimental data: PMC12102759 (2025)

B1: CBL peptide 538-553 (E3 ubiquitin-protein ligase CBL), 16-mer library wild type / YES SH3 (YES1 SH3 domain, residues 90-152) (parent complex)
chain 1: TLRDLPPPPPPDRPYS
chain 2: not shown

Variants of: B1
Test: proteomic peptide phage display deep mutational scan (ProP-PD DMS): M13 P8 16-mer library selected against immobilised GST-tagged bait for four days (rounds), NGS of the eluted pools per day and pseudo-replica; bait immobilised on MaxiSorp plates (10 µg), library pre-cleared on GST, 2 h binding at 4 °C, five washes; one round per day, days 1-4; value from days 2 and 3

First: chain 1 L2W
Second: chain 1 L2I
The screen value of the first is higher: 0.00229 average fractional NGS count over selection days 2 and 3 (reads of this peptide / all reads for the bait, averaged over … for the first, 0.000452 average fractional NGS count over selection days 2 and 3 (reads of this peptide / all reads for the bait, averaged over … for the second.

Compared with chain 1 L2K, chain 1 L2P is lower in screen value: 0.0014 average fractional NGS count over selection days 2 and 3 (reads of this peptide / all reads for the bait, averaged over … for the first, 0.00136 average fractional NGS count over selection days 2 and 3 (reads of this peptide / all reads for the bait, averaged over … for the second.

Going from chain 1 L2M to chain 1 L2Y, the screen value rises from 0.00216 average fractional NGS count over selection days 2 and 3 (reads of this peptide / all reads for the bait, averaged over … to 0.00467 average fractional NGS count over selection days 2 and 3 (reads of this peptide / all reads for the bait, averaged over ….

Compared with chain 1 L2R, chain 1 L2D is higher in screen value: 0.000311 average fractional NGS count over selection days 2 and 3 (reads of this peptide / all reads for the bait, averaged over … for the first, 0.000976 average fractional NGS count over selection days 2 and 3 (reads of this peptide / all reads for the bait, averaged over … for the second.

Going from chain 1 L2Q to chain 1 L2F, the screen value rises from 0.00095 average fractional NGS count over selection days 2 and 3 (reads of this peptide / all reads for the bait, averaged over … to 0.00251 average fractional NGS count over selection days 2 and 3 (reads of this peptide / all reads for the bait, averaged over ….

Going from chain 1 L2G to chain 1 D12M, the screen value rises from 0.000674 average fractional NGS count over selection days 2 and 3 (reads of this peptide / all reads for the bait, averaged over … to 0.00124 average fractional NGS count over selection days 2 and 3 (reads of this peptide / all reads for the bait, averaged over ….

First: chain 1 D12L
Second: chain 1 D12Y
The screen value of the first is higher: 0.00406 average fractional NGS count over selection days 2 and 3 (reads of this peptide / all reads for the bait, averaged over … for the first, 0.00156 average fractional NGS count over selection days 2 and 3 (reads of this peptide / all reads for the bait, averaged over … for the second.

Compared with chain 1 D12P, chain 1 D12T is higher in screen value: 0.00103 average fractional NGS count over selection days 2 and 3 (reads of this peptide / all reads for the bait, averaged over … for the first, 0.00128 average fractional NGS count over selection days 2 and 3 (reads of this peptide / all reads for the bait, averaged over … for the second.

First: chain 1 D12Q
Second: chain 1 D12K
The screen value of the first is higher: 0.00108 average fractional NGS count over selection days 2 and 3 (reads of this peptide / all reads for the bait, averaged over … for the first, 0.00012 average fractional NGS count over selection days 2 and 3 (reads of this peptide / all reads for the bait, averaged over … for the second.

Going from chain 1 D12N to chain 1 D12H, the screen value rises from 0.000102 average fractional NGS count over selection days 2 and 3 (reads of this peptide / all reads for the bait, averaged over … to 0.00265 average fractional NGS count over selection days 2 and 3 (reads of this peptide / all reads for the bait, averaged over ….

First: chain 1 D12V
Second: chain 1 D12I
The screen value of the first is lower: 0.00115 average fractional NGS count over selection days 2 and 3 (reads of this peptide / all reads for the bait, averaged over … for the first, 0.00442 average fractional NGS count over selection days 2 and 3 (reads of this peptide / all reads for the bait, averaged over … for the second.

Going from chain 1 P10H to chain 1 P10Q, the screen value falls from 0.00108 average fractional NGS count over selection days 2 and 3 (reads of this peptide / all reads for the bait, averaged over … to 0.000423 average fractional NGS count over selection days 2 and 3 (reads of this peptide / all reads for the bait, averaged over ….

Compared with chain 1 P10M, chain 1 P10Y is higher in screen value: 0.000512 average fractional NGS count over selection days 2 and 3 (reads of this peptide / all reads for the bait, averaged over … for the first, 0.00108 average fractional NGS count over selection days 2 and 3 (reads of this peptide / all reads for the bait, averaged over … for the second.

Compared with chain 1 P10R, chain 1 P10A is lower in screen value: 0.000614 average fractional NGS count over selection days 2 and 3 (reads of this peptide / all reads for the bait, averaged over … for the first, 0.000136 average fractional NGS count over selection days 2 and 3 (reads of this peptide / all reads for the bait, averaged over … for the second.

Compared with chain 1 P10E, chain 1 P10F is higher in screen value: 0.00012 average fractional NGS count over selection days 2 and 3 (reads of this peptide / all reads for the bait, averaged over … for the first, 0.0021 average fractional NGS count over selection days 2 and 3 (reads of this peptide / all reads for the bait, averaged over … for the second.

Compared with chain 1 P10L, chain 1 P10T is higher in screen value: 0.000964 average fractional NGS count over selection days 2 and 3 (reads of this peptide / all reads for the bait, averaged over … for the first, 0.00196 average fractional NGS count over selection days 2 and 3 (reads of this peptide / all reads for the bait, averaged over … for the second.

Going from chain 1 P10S to chain 1 P11I, the screen value falls from 0.00132 average fractional NGS count over selection days 2 and 3 (reads of this peptide / all reads for the bait, averaged over … to 0.00017 average fractional NGS count over selection days 2 and 3 (reads of this peptide / all reads for the bait, averaged over ….

Compared with chain 1 P11D, chain 1 P11S is lower in screen value: 7.75e-05 average fractional NGS count over selection days 2 and 3 (reads of this peptide / all reads for the bait, averaged over … for the first, 4.62e-05 average fractional NGS count over selection days 2 and 3 (reads of this peptide / all reads for the bait, averaged over … for the second.

First: chain 1 P11L
Second: chain 1 P11V
The screen value of the first is higher: 0.000447 average fractional NGS count over selection days 2 and 3 (reads of this peptide / all reads for the bait, averaged over … for the first, 0.000274 average fractional NGS count over selection days 2 and 3 (reads of this peptide / all reads for the bait, averaged over … for the second.

Compared with chain 1 P11F, chain 1 P11M is lower in screen value: 0.00176 average fractional NGS count over selection days 2 and 3 (reads of this peptide / all reads for the bait, averaged over … for the first, 0.000374 average fractional NGS count over selection days 2 and 3 (reads of this peptide / all reads for the bait, averaged over … for the second.

First: chain 1 P11A
Second: chain 1 P11W
The screen value of the first is higher: 0.000414 average fractional NGS count over selection days 2 and 3 (reads of this peptide / all reads for the bait, averaged over … for the first, 0.000174 average fractional NGS count over selection days 2 and 3 (reads of this peptide / all reads for the bait, averaged over … for the second.

Compared with chain 1 P11T, chain 1 P11N is lower in screen value: 0.00257 average fractional NGS count over selection days 2 and 3 (reads of this peptide / all reads for the bait, averaged over … for the first, 9.7e-05 average fractional NGS count over selection days 2 and 3 (reads of this peptide / all reads for the bait, averaged over … for the second.

First: chain 1 P11H
Second: chain 1 P11Q
The screen value of the first is lower: 0.000426 average fractional NGS count over selection days 2 and 3 (reads of this peptide / all reads for the bait, averaged over … for the first, 0.000805 average fractional NGS count over selection days 2 and 3 (reads of this peptide / all reads for the bait, averaged over … for the second.

Going from chain 1 P8Y to chain 1 P8F, the screen value falls from 0.00011 average fractional NGS count over selection days 2 and 3 (reads of this peptide / all reads for the bait, averaged over … to 5.53e-05 average fractional NGS count over selection days 2 and 3 (reads of this peptide / all reads for the bait, averaged over ….

Compared with chain 1 P8M, chain 1 P8E is lower in screen value: 0.000558 average fractional NGS count over selection days 2 and 3 (reads of this peptide / all reads for the bait, averaged over … for the first, 0.0001 average fractional NGS count over selection days 2 and 3 (reads of this peptide / all reads for the bait, averaged over … for the second.

Going from chain 1 P8I to chain 1 P8T, the screen value falls from 0.000407 average fractional NGS count over selection days 2 and 3 (reads of this peptide / all reads for the bait, averaged over … to 0.000116 average fractional NGS count over selection days 2 and 3 (reads of this peptide / all reads for the bait, averaged over ….

First: chain 1 P8V
Second: chain 1 P8L
The screen value of the first is higher: 0.0024 average fractional NGS count over selection days 2 and 3 (reads of this peptide / all reads for the bait, averaged over … for the first, 0.000561 average fractional NGS count over selection days 2 and 3 (reads of this peptide / all reads for the bait, averaged over … for the second.

Going from chain 1 Y15V to chain 1 Y15M, the screen value falls from 0.00865 average fractional NGS count over selection days 2 and 3 (reads of this peptide / all reads for the bait, averaged over … to 0.000526 average fractional NGS count over selection days 2 and 3 (reads of this peptide / all reads for the bait, averaged over ….

First: chain 1 Y15S
Second: chain 1 Y15I
The screen value of the first is lower: 0.000415 average fractional NGS count over selection days 2 and 3 (reads of this peptide / all reads for the bait, averaged over … for the first, 0.000521 average fractional NGS count over selection days 2 and 3 (reads of this peptide / all reads for the bait, averaged over … for the second.

First: chain 1 Y15W
Second: chain 1 Y15K
The screen value of the first is higher: 0.000273 average fractional NGS count over selection days 2 and 3 (reads of this peptide / all reads for the bait, averaged over … for the first, 0.000227 average fractional NGS count over selection days 2 and 3 (reads of this peptide / all reads for the bait, averaged over … for the second.

Going from chain 1 Y15R to chain 1 Y15L, the screen value rises from 0.000143 average fractional NGS count over selection days 2 and 3 (reads of this peptide / all reads for the bait, averaged over … to 0.00132 average fractional NGS count over selection days 2 and 3 (reads of this peptide / all reads for the bait, averaged over ….

First: chain 1 Y15F
Second: chain 1 Y15N
The screen value of the first is higher: 0.00101 average fractional NGS count over selection days 2 and 3 (reads of this peptide / all reads for the bait, averaged over … for the first, 7.8e-05 average fractional NGS count over selection days 2 and 3 (reads of this peptide / all reads for the bait, averaged over … for the second.

Compared with chain 1 D4P, chain 1 D4Y is higher in screen value: 0.00043 average fractional NGS count over selection days 2 and 3 (reads of this peptide / all reads for the bait, averaged over … for the first, 0.00195 average fractional NGS count over selection days 2 and 3 (reads of this peptide / all reads for the bait, averaged over … for the second.

Compared with chain 1 D4L, chain 1 D4A is higher in screen value: 0.000198 average fractional NGS count over selection days 2 and 3 (reads of this peptide / all reads for the bait, averaged over … for the first, 0.000274 average fractional NGS count over selection days 2 and 3 (reads of this peptide / all reads for the bait, averaged over … for the second.

Compared with chain 1 D4K, chain 1 D4F is lower in screen value: 0.000375 average fractional NGS count over selection days 2 and 3 (reads of this peptide / all reads for the bait, averaged over … for the first, 5.77e-05 average fractional NGS count over selection days 2 and 3 (reads of this peptide / all reads for the bait, averaged over … for the second.

Compared with chain 1 D4V, chain 1 D4I is lower in screen value: 0.00269 average fractional NGS count over selection days 2 and 3 (reads of this peptide / all reads for the bait, averaged over … for the first, 0.00256 average fractional NGS count over selection days 2 and 3 (reads of this peptide / all reads for the bait, averaged over … for the second.

First: chain 1 D4M
Second: chain 1 L5V
The screen value of the first is higher: 0.0013 average fractional NGS count over selection days 2 and 3 (reads of this peptide / all reads for the bait, averaged over … for the first, 6.39e-05 average fractional NGS count over selection days 2 and 3 (reads of this peptide / all reads for the bait, averaged over … for the second.

chain 1 L5F was tested, and the screen value was 6.9e-05 average fractional NGS count over selection days 2 and 3 (reads of this peptide / all reads for the bait, averaged over ….
